Experimental data reported in patent publication US9879306B2, “Luciferase biosensors for cAMP” (PROMEGA CORPORATION, priority 2008, dated 2018).

T1: GPR41 (Homo sapiens, UniProt O14843)
T1 sequence (O14843 1-346): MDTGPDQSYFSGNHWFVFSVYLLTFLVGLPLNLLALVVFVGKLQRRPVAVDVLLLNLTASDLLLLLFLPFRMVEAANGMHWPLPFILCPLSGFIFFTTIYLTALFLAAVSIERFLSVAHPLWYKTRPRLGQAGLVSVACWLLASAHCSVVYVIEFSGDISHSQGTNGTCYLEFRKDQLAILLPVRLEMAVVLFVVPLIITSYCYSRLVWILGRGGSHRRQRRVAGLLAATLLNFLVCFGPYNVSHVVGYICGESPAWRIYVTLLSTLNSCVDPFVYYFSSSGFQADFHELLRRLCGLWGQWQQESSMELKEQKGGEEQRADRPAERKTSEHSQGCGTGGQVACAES


What was measured:
Assay type in all cases: cell-based
HEK293 cells [1] = test: Screening of linker variant cAMP biosensors in HEK293 cells with isoproterenol
Excerpt: The linker variants of Example III were inserted into a CP-FF construct as in Example II. The construct further comprised a mutant RIIβb cAMP binding site containing the substitutions at […] and […]. As in Example II, the constructs were first screened in E. coli to identify linker sequences which provided improved luminescence, improved response or both. The linker variants were then screened for improved luminescence signal, response to isoproterenol, or both in HEK293 cells. On day 1, 15,000 HEK293 cells were plated to the individual wells of a 96-well plate. On day 2, cells were transiently transfected with plasmid DNAs encoding a cAMP biosensor variant comprising a variant linker sequence using the LT1 reagent from Mirus Bio. […] Isoproterenol was added to 10 μM final concentration to the individual wells, and luminescence was monitored continuously in time (Mithras luminometer; 1 second integration time). Once measurements were complete (>30 minutes), cells were lysed, and Renilla luciferase activity was measured. Biosensor luminescence (FF RLU) was normalized using the Renilla luminescence signal (RL norm), and fold-induction (response) was calculated by dividing the normalized biosensor luminescence from isoproterenol-treated wells by the normalized luminescence from control wells that received no compound addition (Figure). […]

HEK293 cells [2] = test: Luminescence and fold response of biosensor clones in HEK293 cells after isoproterenol or FSK; conditions: for Isoproterenol-5 minutes Induced / Isoproterenol-5 minutes Resp: 5 minutes after isoproterenol; for Forskolin (FSK) Induced / Forskolin (FSK) Resp: 15 minutes after FSK; for Isoproterenol-15 minutes Induced / Isoproterenol-15 minutes Resp: 15 minutes after isoproterenol; for Isoproterenol-5 minutes Resp / Forskolin (FSK) Resp / Isoproterenol-15 minutes Resp: RLU induced / RLU uninduced; for Isoproterenol-5 minutes Uninduced / Forskolin (FSK) Uninduced / Isoproterenol-15 minutes Uninduced: uninduced cells; for Forskolin (FSK) Uninduced / Isoproterenol-15 minutes Uninduced: 15 minutes
Experimental: B. HEK293 cells were transiently transfected with plasmid DNAs encoding various biosensor mutants as above. These biosensor mutants contained the E284A and V316I mutation in the RIIbetaB cAMP binding domain and the modified linker sequence 7A1 (GSNWDSGCSREG; SEQ ID NO: 129). The clones also contained the additional mutations outlined in Table 5. Cells were equilibrated for 2 hours at room temperature with 2 mM EF-Luc. Luminescence was measured 5 and 15 minutes after addition of the isoproterenol and 15 minutes after addition of FSK. Fold response (response; Resp.) was calculated by dividing relative light units (RLUs) from induced cells by the RLUs from uninduced cells. As a control, the biosensor GS358 and 7A1 were included.

dopamine D2 receptor = target: T2, dopamine D2 receptor (Homo sapiens, UniProt P14416); test: Forskolin, dopamine and haloperidol responses of biosensor clones in HEK293 cells stably expressing the dopamine D2 receptor; conditions: for Dopamine Induced: 3 μM FSK + 0.3 μM dopamine; for Dopamine Induced / Forskolin (FSK) Induced / Forskolin (FSK) Uninduced: 10 minutes; for Forskolin (FSK) Induced: 3 μM FSK; for Halo Induced: 10 μM Haloperidol pre-treatment, then 3 μM FSK + 0.3 μM dopamine; for Dopamine Response: RLU agonist-treated / forskolin-treated; for Forskolin (FSK) Response: RLU forskolin-treated / untreated; for Halo Response: RLU haloperidol then FSK + dopamine / FSK + dopamine alone; for Forskolin (FSK) Uninduced: untreated (media alone)
T2 construct: expressed in transfected cells
Excerpt: To measure changes in the intracellular concentration of cAMP, HEK293 cells are transiently transfected with mutant cAMP biosensors followed by treatment with compounds known to increase or decrease the intracellular cAMP concentration through GPCR activation of Gs- or Gi-coupled receptors, respectively.
HEK293 cells stably expressing the dopamine D2 receptor were transiently transfected with the mutant cAMP biosensors from Example VIIB. Cells were also transfected with either 7A1 (Example III) or GS358 (parent biosensor) as controls. Cells were equilibrated for 2 hours at room temperature using 2 mM EF-luc. Antagonist assay wells were pre-treated for 10-15 minutes at room temperature with 10 μM Haloperidol (Halo). Next, the following reagents were added to their respective wells: media alone to “untreated” samples; 3 μM forskolin (FSK) to “forskolin-treated” samples; 3 μM FSK+0.3 μM dopamine to “agonist-treated” samples; and 3 μM FSK+0.3 μM dopamine to the aforementioned wells pre-treated with Halo. The cells were then incubated at room temperature for 10 minutes and luminescence was measured. Fold response for FSK was calculated by dividing the RLU from “forskolin-treated” cells by the RLU from the “untreated” cells. Fold response for dopamine treatment was calculated by dividing the RLU from the “agonist-treated” cells by the RLU from the “forskolin-treated” cells. Fold response for Haloperidol treatment was calculated by dividing the RLU from the cells treated with haloperidol then forskolin plus dopamine by the RLU of cells treated with forskolin plus dopamine alone.

GPR41 [3] = test: Sodium proprionate CRC with biosensor variants in HEK293 cells stably expressing GPR41; conditions: ratio of RLU of FSK treated well to untreated well
Summary of the method: (§1)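 Luminescent cAMP readout: EC50 and fold response from a sodium propionate concentration-response, tested ± FSK. Luminescence was read before compound and 30 min after. Cells were HEK293 stably expressing GPR41, carrying a transiently transfected cAMP biosensor variant and preloaded 2 h at room temperature with 5 mM EF-luc in CO2-independent medium plus 10% FBS.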

GPR41 [4] = target: T1, GPR41; test: as above; conditions: for Fold Response Na proprionate + FSK(1 μM): with FSK 1 μM; for Fold Response Na proprionate: without FSK, ratio of induced to uninduced signal
Summary of the method: as §1

T2 sequence (P14416 whole entry, species assumed): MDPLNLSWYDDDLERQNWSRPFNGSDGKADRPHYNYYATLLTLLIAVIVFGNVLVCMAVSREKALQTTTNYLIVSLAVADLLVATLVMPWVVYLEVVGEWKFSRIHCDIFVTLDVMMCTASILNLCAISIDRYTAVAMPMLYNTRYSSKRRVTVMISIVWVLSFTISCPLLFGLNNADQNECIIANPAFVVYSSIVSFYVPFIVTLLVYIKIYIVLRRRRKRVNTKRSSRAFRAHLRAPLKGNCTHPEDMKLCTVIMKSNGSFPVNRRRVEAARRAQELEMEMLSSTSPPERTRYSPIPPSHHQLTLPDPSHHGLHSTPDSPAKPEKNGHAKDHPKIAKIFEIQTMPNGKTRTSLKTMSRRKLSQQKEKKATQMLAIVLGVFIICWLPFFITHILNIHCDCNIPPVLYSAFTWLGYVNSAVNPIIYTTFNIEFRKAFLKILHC

Molecule	Isoproterenol-5 minutes Induced (HEK293 cells [2]) [RLU]	Forskolin (FSK) Induced (HEK293 cells [2]) [RLU]	Isoproterenol-15 minutes Induced (HEK293 cells [2]) [RLU]	Isoproterenol-5 minutes Resp (HEK293 cells [2]) [fold]	Forskolin (FSK) Resp (HEK293 cells [2]) [fold]	Isoproterenol-15 minutes Resp (HEK293 cells [2]) [fold]	Isoproterenol-5 minutes Uninduced (HEK293 cells [2]) [RLU]	Forskolin (FSK) Uninduced (HEK293 cells [2]) [RLU]	Isoproterenol-15 minutes Uninduced (HEK293 cells [2]) [RLU]	Dopamine Induced (dopamine D2 receptor) [RLU]	Forskolin (FSK) Induced (dopamine D2 receptor) [RLU]	Halo Induced (dopamine D2 receptor) [RLU]	Dopamine Response (dopamine D2 receptor) [fold]	Forskolin (FSK) Response (dopamine D2 receptor) [fold]	Halo Response (dopamine D2 receptor) [fold]	Forskolin (FSK) Uninduced (dopamine D2 receptor) [RLU]	Fold Signal Change (GPR41 [3])	Fold Response Na proprionate + FSK(1 μM) (GPR41 [4])	Fold Response Na proprionate (GPR41 [4])	also measured
7A1: cAMP biosensor, RIIβB E284A and V316I, linker …; SEQ ID NO:113, 114 (protein, cAMP biosensor, RIIβB E284A and V316I, linker …) MPGAVGKVVPFFEAKVVDLDTGKTLGVNQRGELCVRGPMIMSGYVNNPEATNALIDKDGWLHSGDIAYWDEDEHFFIVDRLKSLIKYKGYQVAPAELESILLQHPNIFDAGVAGLPDDDAGELPAAVVVLEHGKTMTEKEIVDYVASQVTTAKKLRGGVVFVDEVPKGLTGKLDARKIREILIKAKKGSSGGSGGSGGGMYESFIESLPFLKSLEFSERLKVVDVIGTKVYNDGEQIIAQGDSADSFFIVESGEVKITMKRKGKSEVEENGAVEIARCSRGQYFGELALVTNKPRAASAHAIGTVKCLAMDVQAFERLLGPCMEIMKRNIATYEEQLVALFGTNMDIVAKNIKKGPAPFYPLEDGTAGEQLHKAMKRYALVPGTIAFTDAHIEVDITYAEYFEMSVRLAEAMKRYGLNTNHRIVVCSENSLQFFMPVLGALFIGVAVAPANDIYNERELLNSMGISQPTVVFVSKKGLQKILNVQKKLPIIQKIIIMDSKTDYQGFQSMYTFVTSHLPPGFNEYDFVPESFDRDKTIALIMNSSGSTGLPKGVALPHRTACVRFSHARDPIFGNQIIPDTAILSVVPFHHGFGMFTTLGYLICGFRVVLMYRFEEELFLRSLQDYKIQSALLVPTLFSFFAKSTLIDKYDLSNLHEIASGGAPLSKEVGEAVAKRFHLPGIRQGYGLTETTSAILITPEGV	73287	161755	173340	60	47	51	1231	3415	3415	1860	4709	5429	0.38	15	2.9	307				Signal Improvement (HEK293 cells [1]; fold improvement in luminescent signal over parental GS358 with E284A and V316I, HEK293, 10 μM isoproterenol): 2.4 fold; Response Improvement (HEK293 cells [1]; fold improvement in response to isoproterenol over parental GS358 with E284A and V316I, HEK293, 10 μM): 1.4 fold
GS358: parent cAMP biosensor Met-(FF luc 359-544)-GSSGGSGGSGGG-(RIIβB)-(FFluc4-355)-Val; SEQ ID NO:111, 112 (protein) MPGAVGKVVPFFEAKVVDLDTGKTLGVNQRGELCVRGPMIMSGYVNNPEATNALIDKDGWLHSGDIAYWDEDEHFFIVDRLKSLIKYKGYQVAPAELESILLQHPNIFDAGVAGLPDDDAGELPAAVVVLEHGKTMTEKEIVDYVASQVTTAKKLRGGVVFVDEVPKGLTGKLDARKIREILIKAKKGSSGGSGGSGGGMYESFIESLPFLKSLEFSERLKVVDVIGTKVYNDGEQIIAQGDSADSFFIVESGEVKITMKRKGKSEVEENGAVEIARCSRGQYFGELALVTNKPRAASAHAIGTVKCLAMDVQAFERLLGPCMEIMKRNIATYEEQLVALFGTNMDIVAKNIKKGPAPFYPLEDGTAGEQLHKAMKRYALVPGTIAFTDAHIEVDITYAEYFEMSVRLAEAMKRYGLNTNHRIVVCSENSLQFFMPVLGALFIGVAVAPANDIYNERELLNSMGISQPTVVFVSKKGLQKILNVQKKLPIIQKIIIMDSKTDYQGFQSMYTFVTSHLPPGFNEYDFVPESFDRDKTIALIMNSSGSTGLPKGVALPHRTACVRFSHARDPIFGNQIIPDTAILSVVPFHHGFGMFTTLGYLICGFRVVLMYRFEEELFLRSLQDYKIQSALLVPTLFSFFAKSTLIDKYDLSNLHEIASGGAPLSKEVGEAVAKRFHLPGIRQGYGLTETTSAILITPEGV	41610	195335	184150	8	13	12	4943	14895	14895	5153	9166	9218	0.56	5	1.9	1704	9.48 (n = 8) fold	3.19 (n = 7) fold	2.56 (n = 8) fold	
4H7: 7A1 biosensor with F407Y in RIIβb; SEQ ID NO:35, 36 (protein) MPGAVGKVVPFFEAKVVDLDTGKTLGVNQRGELCVRGPMIMSGYVNNPEATNALIDKDGWLHSGDIAYWDEDEHFFIVDRLKSLIKYKGYQVAPAELESILLQHPNIFDAGVAGLPDDDAGELPAAVVVLEHGKTMTEKEIVDYVASQVTTAKKLRGGVVFVDEVPKGLTGKLDARKIREILIKAKKGSNWDSGCSREGMYESFIESLPFLKSLEFSARLKVVDVIGTKVYNDGEQIIAQGDSADSFFIIESGEVKITMKRKGKSEVEENGAVEIARCSRGQYFGELALVTNKPRAASAHAIGTVKCLAMDVQAFERLLGPCMEIMKRNIATYEEQLVALYGTNMDIVAKNIKKGPAPFYPLEDGTAGEQLHKAMKRYALVPGTIAFTDAHIEVDITYAEYFEMSVRLAEAMKRYGLNTNHRIVVCSENSLQFFMPVLGALFIGVAVAPANDIYNERELLNSMGISQPTVVFVSKKGLQKILNVQKKLPIIQKIIIMDSKTDYQGFQSMYTFVTSHLPPGFNEYDFVPESFDRDKTIALIMNSSGSTGLPKGVALPHRTACVRFSHARDPIFGNQIIPDTAILSVVPFHHGFGMFTTLGYLICGFRVVLMYRFEEELFLRSLQDYKIQSALLVPTLFSFFAKSTLIDKYDLSNLHEIASGGAPLSKEVGEAVAKRFHLPGIRQGYGLTETTSAILITPEGV	42467	88555	207210	86	33	78	493	2665	2665	583	3180	2778	0.18	14	4.8	230	93.6 fold	2.98 fold	1.94 fold	
